Test results: the supplement of paper PMC12042874
± gives the uncertainty stated by the source.

Assay: amyloid nucleation score (Sup35N fusion, yeast selection) (log enrichment); library NNK3; higher = more nucleation; inactive = no reads after selection
How it was run: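 Yeast lacking psi expressed peptides of 20 random codons fused to Sup35N, received 100 μM copper sulfate for 24 hours, and were then grown for 7 days at 30°C on medium lacking adenine and uracil. Illumina sequencing of input and output plasmid inserts provided the reads. Nucleation scores are DiMSum log enrichments of output over input, centred on the mode of non-aggregating sequences. Any sequence with under 100 input reads was excluded.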

Substance	amyloid nucleation score
IHFLNWSARM	inactive
IHGPGCRSCERSSVGLRSGL	inactive
IHPVNLRVLSFGHIWCWYLR	inactive
IIASDLSLSVVNVFN	0.341 ± 0.31
IIFDR	inactive
IILFINATGRIRSWCDEYGL	0.681 ± 0.27
IILTIGRMGLFNMAK	-0.152 ± 0.47
IINLQSWQHLLNRHGTELSV	inactive
IIPTD	inactive
IIQALVF	inactive
IIQDYGTVVD	inactive
IIRVLNWYHYIEAKTLNSLR	inactive
IITYKVS	inactive
IIVVCDSDRLFLPNQPPNVI	inactive
IKFSYKCS	inactive
IKIHYF	inactive
IKMSLAELTIFRCLWDCPNS	2.42 ± 0.077
IKPSAS	inactive
IKSLFVGGFSLNVTPTHKGR	1.57 ± 0.13
ILADSCGV	inactive
ILCLVAVLGASRGYVMAEWY	inactive

Substance	amyloid nucleation score
ILCSSDCDSYSLQPLFGFPC	inactive
ILDTEHYLMYKVSPAVASLS	inactive
ILFSISSVMF	0.605 ± 0.19
ILIRHDAMNRYPQC	inactive
ILKKRFRMVPLK	inactive
ILKSTELWKRESQFSQRVGA	4.44 ± 0.057
ILLCRKYWFFRFTMVV	inactive
ILLFYLSLKRCSLQARGLDS	-0.659 ± 1.8
ILLIWCIFTSAKFQQTSFMT	inactive
ILLWFSTVNWSFANEPGQIL	inactive
ILRFMYAVHDISFFYLIVCF	inactive
ILRLTCLIAKHTRAVNMDLQ	inactive
ILRYVLAHSVLKTCLMQGLA	inactive
ILSITC	inactive
ILSLAGSKWCWEKYRMGS	inactive
ILSLPRRNYSKTVFNRLKAE	inactive
ILSNDEFTCKFCCSCSYRGG	0.956 ± 0.31
ILVFR	inactive
ILVGNFSILWY	inactive
ILVIIKNHFVFFAGR	inactive
ILVLRHA	inactive

Substance	amyloid nucleation score
ILVTASTAYLDVRVKWIQTF	inactive
ILYLVR	inactive
IMFSILSVMML	1.74 ± 0.11
IMKKESVAHHVNIGIHASLT	-0.101 ± 1.1
IMLKL	inactive
IMNHLLSRVVCFLDKIVHMG	inactive
IMSKVASDALIPVTSSMSTG	inactive
IMSPTFGFQMLWPGPRHRLL	inactive
IMTSFPGEFPLSLHNMCASC	inactive
IMYFMLMLGSSRMSFTKLMG	inactive
INAQS	inactive
INDLKGVVLNIWIKYIV	0.602 ± 0.14
INFHMS	inactive
INFVYSHM	1.75 ± 0.12
INGDMFSSFENVCYYEVSSL	-0.325 ± 0.3
INGSGSAIYGRITRGLNGDS	inactive
INLPDASS	inactive
INMRFIQKRMFVYLNYSWYA	inactive
INQGLTWMLDRPSKFAFVAV	inactive
INQYRPAPIQEAPLF	inactive
INRHGCIGVHTLSLMLRPCV	inactive

Substance	amyloid nucleation score
INYIIVSGSAGIRMTGK	2.52 ± 0.064
IPFTENSVPPFKGLTVSSNV	inactive
IPRVDLLLCLDSIGLGRSLN	inactive
IPSVFKLSVWGYADSTCLRR	inactive
IPTIVPLAQLRVSVTSVWNL	inactive
IPVCAWRWSG	inactive
IPVGIRSRFVLYSCGMTGVK	inactive
IQGVAWVQKAWFSRKAGVQI	inactive
IQGYLANDVPMRNWPG	inactive
IQRVGTKGDVISTFCNRQQL	inactive
IQWMLCAKANLIEYKGVFFI	inactive
IREYCFH	inactive
IRGDGCTGARSPTTSRAAGN	inactive
IRITNDNFVVRLVSQTVGLK	inactive
IRNFSLKPISSNLNSL	inactive
IRRDLYQATPRNLVWAYFGW	inactive
IRTARNTEETMVVACMTVGV	inactive
ISFSLH	inactive
